The chains are these.
B1: unnamed (parent)
chain 1: MNLEGGGRGGEFGMSAVSCGNGKLRQWLIDQIDSGKYPGLVWENEEKSIFRIPWKHAGKQDYNREEDAALFKAWALFKGKFREGIDKPDPPTWKTRLRCALNKSNDFEELVERSQLDISDPYKVYRIVPEGAKKGAKQLTLEDPQMSMSHPYTMTTPYPSLPAQQVHNYMMPPLDRSWRDYVPDQPHPEIPYQCPMTFGPRGHHWQGPACENGCQVTGTFYACAPPESQAPGVPTEPSIRSAEALAFSDCRLHICLYYREILVKELTTSSPEGCRISHGHTYDASNLDQVLFPYPEDNGQRKNIEKLLSHLERGVVLWMAPDGLYAKRLCQSRIYWDGPLALCNDRPNKLERDQTCKLFDTQQFLSELQAFAHHGRSLPRFQVTLCFGEEFPDPQRQRKLITAHVEPLLARQLYYFAQQNSGHFLRGYDLPEHISNPEDYHRSIRHSSIQE
chain 2: LILDSGLDTQHILCFVMAARQRLQDIRRGP
B2: unnamed (parent)
chain 1: MCDRNGGRRLRQWLIEQIDSSMYPGLIWENEEKSMFRIPWKHAGKQDYNQEVDASIFKAWAVFKGKFKEGDKAEPATWKTRLRCALNKSPDFEEVTDRSQLDISEPYKVYRIVPEEEQKCKLGVATAGCVNEVTEMECGRSEIDELIKEPSVDDYMGMIKRSPSPPEACRSQLLPDWWAQQPSTGVPLVTGYTTYDAHHSAFSQMVISFYYGGKLVGQATTTCPEGCRLSLSQPGLPGTKLYGPEGLELVRFPPADAIPSERQRQVTRKLFGHLERGVLLHSSRQGVFVKRLCQGRVFCSGNAVVCKGRPNKLERDEVVQVFDTSQFFRELQQFYNSQGRLPDGRVVLCFGEEFPDMAPLRSKLILVQIEQLYVRQLAEEAGKSCGAGSVMQAPEEPPPDQVFRMFPDICASHQRSFFRENQQITV
chain 2: B1 chain 2

The variants in the first assay derive from B1. Put plainly: GST pull-down of S35-radiolabeled in vitro translated protein. To be noted: with partner chain of the complex shown; 5% of IVT input (input lane = 5 RBU); GST control lane = 0.5 RBU; parent: 14.1.
chain 2 F15A: the response came to 0.5 RBU. As for chain 2 C14A, the response was 14 RBU. Still for that read-out and setting: in the case of chain 2 R20G R22G it was 4.9 RBU.

Variants of B2 are the subject of a further assay. The assay is described as above. To be noted: with partner chain of the complex shown; 5% of IVT input (input lane = 5 RBU); GST control lane = 0.4 RBU; parent: 3.9.
chain 2 F15A: the response was 0.6 RBU.

Consider chain 2 R20G R22G, for which the response stood at 0.7 RBU.

Consider chain 2 C14A, for which the response turned out to be 3.2 RBU.

The values are drawn from PMC3642079.
